Our source for the activity values is US20180187185.

What all share (assay): cell_activity
Data set [1] concerns Bmpr2 FWD RTN (Ralstonia TALE 16 EBEs in Xanthomonas TAL backbone-FokI) (Ralstonia (TALE repeats); Xanthomonas backbone). The following applies: RTN pair p1+p2, Rat C6, Surveyor 250 bp band; 5.43% by 150 bp band.
The subject of data set [2] is Bmpr2 REV RTN (Ralstonia TALE 16 EBEs in Xanthomonas TAL backbone-FokI) (Ralstonia (TALE repeats); Xanthomonas backbone). The settings on record: RTN pair p1+p2, Rat C6, Surveyor 250 bp band; 5.43% by 150 bp band; printed SEQ 150 differs from SEQ 148 complement at position 5.
The subject of data set [3] is Bmpr2 XTN (Xanthomonas TALEN-FokI pair) (Xanthomonas). The settings on record: TALEN pair, Rat C6, Surveyor 250 bp band; 3.66% by 150 bp band; XTN RVDs and half-sites not stated.
For data set [4], the system named is AAVS1 TALE-Clo051 (Clo051-XTN) (Xanthomonas TALE). The settings on record: average of replicates; locus inferred AAVS1; sequencing gave 9.3% indels (FIG. 11).
Data set [5] has as its system AAVS1 TALE-FokI (FokI-XTN) (Xanthomonas TALE). The following applies: average of replicates; locus inferred AAVS1; sequencing gave 6.5% indels (FIG. 12).

“TTGATAGTCGCCTTATGT (double strand) [Bmpr2 forward half-site]” registered an activity in data set [1] of 1.82 % cutting. “TGACAGGTAAACGAAATA (double strand) [Bmpr2 reverse half-site (complement of the printed strand)]” returned an activity in data set [2] of 1.82 % cutting.

The substance “TTGATAGTCGCCTTATGTTTTGGATACAGAATGTTGACAGGTAAACGAAATA (double strand) [Bmpr2 full TALEN target site]” came in with an activity in data set [3] of 5.75 % cutting. As to AAVS1 target locus, the activity in data set [4] stood at 8.1 % cutting; in data set [5] it was 7.1 % cutting.
